Assay [1] concerns the target stretch-activated channels (SACs) of activated adult rat astrocytes (rat). Kind of assay: cell-based or functional assay.
The target is the same in assay [2].
Assay [3] has the same target. This is another data set of the same source.

“And” between values parts separate entries of the source, which are not always exact repeats. Identical values can stand only once. Like-named read-outs stand apart in the source and are kept apart here. Where no end group is shown, it is not given here.

B1: GsMTx-4 purified from Grammostola spatulata venom (peptide)
peptide: GCLEFWWKCNPNDDKCCRPKLKCSKLFKLCNFSSG-NH2
modifications: disulfide (positions not given here); not fully specified (bridges); also: 3 disulfides (ICK motif), pairing not given here
As a reminder, the kon is a measure of how fast the partners come together. For orientation: Kd means the equilibrium constant for the complex coming apart. A low value points to higher affinity. As a reminder, the koff is the first-order rate constant of dissociation. Higher therefore signals a short-lived complex. B1: in assay [1], the average SAC current after GsMTx-4 washout was determined as 2.28 pA, the average SAC current during GsMTx-4 application worked out at 0.17 pA, the mean SAC current before GsMTx-4 application was 2.04 pA and the ratio of blocked to unblocked current I/I0 was determined as 0.083. The time constant of recovery of SAC current on washout in assay [1] was 4.7 s. The same molecule had an on-rate (kon) in assay [2] of 340000 M⁻¹ s⁻¹. In assay [3], the Kd is 631 nM and 415 nM; the koff was found to be 0.21 s⁻¹; the kon amounted to 330000 M⁻¹ s⁻¹.

The values are drawn from patent publication US7125847.
